# Source: doi:10.1101/2024.06.26.600780 (bioRxiv, 2024)
# B1: Nb207 (VHH)
# VHH: QVQLVESGGGLVQAGGSLRLSCAASGRTFSTAAMGWFRQAPGKERDFVAGIYWTVGSTYYADSAKGRFTISRDNAKNTVYLQMDSLKPEDTAVYYCAARRRGFTLAPTRANEYDYWGQGTQVTVSS
# B2: Nb395 (VHH)
# VHH: QVQLVESGGGLVQTGDSLRLSCAASLRTFKSYAMGWFRQAPGKEREAVATISAEGDSTYYDDSVKGRFTISRDNAANTVYLQMNSLKPEDTAVYYCAASRFPYGLRLLQRRESDYWGQGTQVTVSS
# B3: Nb394 (VHH)
# VHH: QVQLVESGGGLVQAGGSLRLSCAASGRTFSVSNMGWFRQAPGKERVFVAAIGWTTGSTYYADSVKGRFTISRDNTKNTVYLQMNSLKPEDTAVYRCAARRRGYSRVPMTPDEYEYWGQGTQVTVSS
# Target: Green Fluorescent Protein (GFP), biotinylated (biotin (EZ-Link NHS-PEG4-Biotin))
# Assay: BLI
row,Binder,binding result
1,B1,binds
2,B2,binds
3,B3,binds
